Laboratory results: patent publication US20240158538A1

Target: VISTA (analyte in the BLI assay with VSIG-3) (Homo sapiens (Human)) (UniProt Q9H7M9)
Test: BLI (Octet QK384), 100 nM Fc-tagged VSIG-3 on anti-human Fc biosensor, VISTA from 3000 nM in solution

Kd: 5.28 µM
Substance: Fc-tagged VSIG-3 (from UniProt Q5DX21 23-241) (Fc fusion)
